Reference: US9879306B2, “Luciferase biosensors for cAMP” (PROMEGA CORPORATION, priority 2008, dated 2018)

Tests used:
[1] = target: T1, GPR41 (Homo sapiens, UniProt O14843); assay: Sodium proprionate CRC with biosensor variants in HEK293 cells stably expressing GPR41; format: cell-based; conditions: for Fold Response Na proprionate + FSK(1 μM): with FSK 1 μM; for Fold Response Na proprionate: without FSK, ratio of induced to uninduced signal
T1 sequence (O14843 1-346): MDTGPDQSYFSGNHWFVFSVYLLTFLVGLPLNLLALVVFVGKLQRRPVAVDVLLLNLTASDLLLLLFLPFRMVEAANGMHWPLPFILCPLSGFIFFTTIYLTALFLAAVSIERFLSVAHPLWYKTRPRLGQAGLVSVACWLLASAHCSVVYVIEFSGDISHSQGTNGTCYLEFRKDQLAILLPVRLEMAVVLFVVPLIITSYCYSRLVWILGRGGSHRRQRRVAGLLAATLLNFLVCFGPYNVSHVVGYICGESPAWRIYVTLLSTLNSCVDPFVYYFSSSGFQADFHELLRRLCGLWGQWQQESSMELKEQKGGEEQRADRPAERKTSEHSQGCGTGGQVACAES
Procedure: (§1) After 24 hours, the cells were transiently transfected with one of the cAMP biosensor variants (Tables 7A and 7B). After another 24 hours, the cells were equilibrated for 2 hours at room temperature using 5 mM EF-luc in CO2 independent media with 10% FBS. Prior to the addition of the compounds, luminescence was measured. The compounds (12× stock in CO2 independent media without FBS) were then added to the cells. For GPR41 expressing cells, sodium proprionate CRC was added. […] The cells were allowed to incubate another 30 minutes and luminescence read on a Varioskan Flash. EC50 values and fold responses were calculated for each of the clones with each of the compounds with or without FSK. In addition, variants […]7 (Example VIIB), 16A2 (Example VIIB) and GS358 were also screened.

[2] = system: GPR41; assay: as above; format: cell-based; conditions: ratio of RLU of FSK treated well to untreated well
Procedure: as §1

Row | Molecule | Fold Response Na proprionate + FSK(1 μM) [1] | Fold Response Na proprionate [1] | Fold Signal Change [2]
1 | 7A1-LY: 7A1 background with Luc2.0 F518L and RIIβB F407Y; SEQ ID NO:25, 26 (protein) MPGAVGKVVPFFEAKVVDLDTGKTLGVNQRGELCVRGPMIMSGYVNNPEATNALIDKDGWLHSGDIAYWDEDEHFFIVDRLKSLIKYKGYQVAPAELESILLQHPNIFDAGVAGLPDDDAGELPAAVVVLEHGKTMTEKEIVDYVASQVTTAKKLRGGVVLVDEVPKGLTGKLDARKIREILIKAKKGSNWDSGCSREGMYESFIESLPFLKSLEFSARLKVVDVIGTKVYNDGEQIIAQGDSADSFFIIESGEVKITMKRKGKSEVEENGAVEIARCSRGQYFGELALVTNKPRAASAHAIGTVKCLAMDVQAFERLLGPCMEIMKRNIATYEEQLVALYGTNMDIVAKNIKKGPAPFYPLEDGTAGEQLHKAMKRYALVPGTIAFTDAHIEVDITYAEYFEMSVRLAEAMKRYGLNTNHRIVVCSENSLQFFMPVLGALFIGVAVAPANDIYNERELLNSMGISQPTVVFVSKKGLQKILNVQKKLPIIQKIIIMDSKTDYQGFQSMYTFVTSHLPPGFNEYDFVPESFDRDKTIALIMNSSGSTGLPKGVALPHRTACVRFSHARDPIFGNQIIPDTAILSVVPFHHGFGMFTTLGYLICGFRVVLMYRFEEELFLRSLQDYKIQSALLVPTLFSFFAKSTLIDKYDLSNLHEIASGGAPLSKEVGEAVAKRFHLPGIRQGYGLTETTSAILITPEGV | 62.19 fold | 2.15 fold | 141.7 fold
2 | 7A1-ILQY: 7A1 background with Luc2.0 F369I, F518L, K541Q and RIIβB F407Y; SEQ ID NO:31, 32 (protein) MPGAVGKVVPFIEAKVVDLDTGKTLGVNQRGELCVRGPMIMSGYVNNPEATNALIDKDGWLHSGDIAYWDEDEHFFIVDRLKSLIKYKGYQVAPAELESILLQHPNIFDAGVAGLPDDDAGELPAAVVVLEHGKTMTEKEIVDYVASQVTTAKKLRGGVVLVDEVPKGLTGKLDARKIREILIQAKKGSNWDSGCSREGMYESFIESLPFLKSLEFSARLKVVDVIGTKVYNDGEQIIAQGDSADSFFIIESGEVKITMKRKGKSEVEENGAVEIARCSRGQYFGELALVTNKPRAASAHAIGTVKCLAMDVQAFERLLGPCMEIMKRNIATYEEQLVALYGTNMDIVAKNIKKGPAPFYPLEDGTAGEQLHKAMKRYALVPGTIAFTDAHIEVDITYAEYFEMSVRLAEAMKRYGLNTNHRIVVCSENSLQFFMPVLGALFIGVAVAPANDIYNERELLNSMGISQPTVVFVSKKGLQKILNVQKKLPIIQKIIIMDSKTDYQGFQSMYTFVTSHLPPGFNEYDFVPESFDRDKTIALIMNSSGSTGLPKGVALPHRTACVRFSHARDPIFGNQIIPDTAILSVVPFHHGFGMFTTLGYLICGFRVVLMYRFEEELFLRSLQDYKIQSALLVPTLFSFFAKSTLIDKYDLSNLHEIASGGAPLSKEVGEAVAKRFHLPGIRQGYGLTETTSAILITPEGV | 8.13 fold | 2.57 fold | 220.1 fold
3 | 7A1-LQY: 7A1 background with Luc2.0 F518L, K541Q and RIIβB F407Y; SEQ ID NO:58, 59 (protein) MPGAVGKVVPFFEAKVVDLDTGKTLGVNQRGELCVRGPMIMSGYVNNPEATNALIDKDGWLHSGDIAYWDEDEHFFIVDRLKSLIKYKGYQVAPAELESILLQHPNIFDAGVAGLPDDDAGELPAAVVVLEHGKTMTEKEIVDYVASQVTTAKKLRGGVVLVDEVPKGLTGKLDARKIREILIQAKKGSNWDSGCSREGMYESFIESLPFLKSLEFSARLKVVDVIGTKVYNDGEQIIAQGDSADSFFIIESGEVKITMKRKGKSEVEENGAVEIARCSRGQYFGELALVTNKPRAASAHAIGTVKCLAMDVQAFERLLGPCMEIMKRNIATYEEQLVALYGTNMDIVAKNIKKGPAPFYPLEDGTAGEQLHKAMKRYALVPGTIAFTDAHIEVDITYAEYFEMSVRLAEAMKRYGLNTNHRIVVCSENSLQFFMPVLGALFIGVAVAPANDIYNERELLNSMGISQPTVVFVSKKGLQKILNVQKKLPIIQKIIIMDSKTDYQGFQSMYTFVTSHLPPGFNEYDFVPESFDRDKTIALIMNSSGSTGLPKGVALPHRTACVRFSHARDPIFGNQIIPDTAILSVVPFHHGFGMFTTLGYLICGFRVVLMYRFEEELFLRSLQDYKIQSALLVPTLFSFFAKSTLIDKYDLSNLHEIASGGAPLSKEVGEAVAKRFHLPGIRQGYGLTETTSAILITPEGV |  | 1.94 fold | 153.1 fold
4 | 7A1-IY: 7A1 background with Luc2.0 F369I and RIIβB F407Y; SEQ ID NO:39, 40 (protein) MPGAVGKVVPFIEAKVVDLDTGKTLGVNQRGELCVRGPMIMSGYVNNPEATNALIDKDGWLHSGDIAYWDEDEHFFIVDRLKSLIKYKGYQVAPAELESILLQHPNIFDAGVAGLPDDDAGELPAAVVVLEHGKTMTEKEIVDYVASQVTTAKKLRGGVVFVDEVPKGLTGKLDARKIREILIKAKKGSNWDSGCSREGMYESFIESLPFLKSLEFSARLKVVDVIGTKVYNDGEQIIAQGDSADSFFIIESGEVKITMKRKGKSEVEENGAVEIARCSRGQYFGELALVTNKPRAASAHAIGTVKCLAMDVQAFERLLGPCMEIMKRNIATYEEQLVALYGTNMDIVAKNIKKGPAPFYPLEDGTAGEQLHKAMKRYALVPGTIAFTDAHIEVDITYAEYFEMSVRLAEAMKRYGLNTNHRIVVCSENSLQFFMPVLGALFIGVAVAPANDIYNERELLNSMGISQPTVVFVSKKGLQKILNVQKKLPIIQKIIIMDSKTDYQGFQSMYTFVTSHLPPGFNEYDFVPESFDRDKTIALIMNSSGSTGLPKGVALPHRTACVRFSHARDPIFGNQIIPDTAILSVVPFHHGFGMFTTLGYLICGFRVVLMYRFEEELFLRSLQDYKIQSALLVPTLFSFFAKSTLIDKYDLSNLHEIASGGAPLSKEVGEAVAKRFHLPGIRQGYGLTETTSAILITPEGV | 8.66 fold | 2.81 fold | 165.7 fold
5 | 7A1-LQ: 7A1 background with Luc2.0 F518L, K541Q; SEQ ID NO:64, 65 (protein) MPGAVGKVVPFFEAKVVDLDTGKTLGVNQRGELCVRGPMIMSGYVNNPEATNALIDKDGWLHSGDIAYWDEDEHFFIVDRLKSLIKYKGYQVAPAELESILLQHPNIFDAGVAGLPDDDAGELPAAVVVLEHGKTMTEKEIVDYVASQVTTAKKLRGGVVLVDEVPKGLTGKLDARKIREILIQAKKGSNWDSGCSREGMYESFIESLPFLKSLEFSARLKVVDVIGTKVYNDGEQIIAQGDSADSFFIIESGEVKITMKRKGKSEVEENGAVEIARCSRGQYFGELALVTNKPRAASAHAIGTVKCLAMDVQAFERLLGPCMEIMKRNIATYEEQLVALFGTNMDIVAKNIKKGPAPFYPLEDGTAGEQLHKAMKRYALVPGTIAFTDAHIEVDITYAEYFEMSVRLAEAMKRYGLNTNHRIVVCSENSLQFFMPVLGALFIGVAVAPANDIYNERELLNSMGISQPTVVFVSKKGLQKILNVQKKLPIIQKIIIMDSKTDYQGFQSMYTFVTSHLPPGFNEYDFVPESFDRDKTIALIMNSSGSTGLPKGVALPHRTACVRFSHARDPIFGNQIIPDTAILSVVPFHHGFGMFTTLGYLICGFRVVLMYRFEEELFLRSLQDYKIQSALLVPTLFSFFAKSTLIDKYDLSNLHEIASGGAPLSKEVGEAVAKRFHLPGIRQGYGLTETTSAILITPEGV | 6.6 fold | 2.70 fold | 85.2 fold
6 | 7A1-QY: 7A1 background with Luc2.0 K541Q and RIIβB F407Y; SEQ ID NO:109, 110 (protein) MPGAVGKVVPFFEAKVVDLDTGKTLGVNQRGELCVRGPMIMSGYVNNPEATNALIDKDGWLHSGDIAYWDEDEHFFIVDRLKSLIKYKGYQVAPAELESILLQHPNIFDAGVAGLPDDDAGELPAAVVVLEHGKTMTEKEIVDYVASQVTTAKKLRGGVVFVDEVPKGLTGKLDARKIREILIQAKKGSNWDSGCSREGMYESFIESLPFLKSLEFSARLKVVDVIGTKVYNDGEQIIAQGDSADSFFIIESGEVKITMKRKGKSEVEENGAVEIARCSRGQYFGELALVTNKPRAASAHAIGTVKCLAMDVQAFERLLGPCMEIMKRNIATYEEQLVALYGTNMDIVAKNIKKGPAPFYPLEDGTAGEQLHKAMKRYALVPGTIAFTDAHIEVDITYAEYFEMSVRLAEAMKRYGLNTNHRIVVCSENSLQFFMPVLGALFIGVAVAPANDIYNERELLNSMGISQPTVVFVSKKGLQKILNVQKKLPIIQKIIIMDSKTDYQGFQSMYTFVTSHLPPGFNEYDFVPESFDRDKTIALIMNSSGSTGLPKGVALPHRTACVRFSHARDPIFGNQIIPDTAILSVVPFHHGFGMFTTLGYLICGFRVVLMYRFEEELFLRSLQDYKIQSALLVPTLFSFFAKSTLIDKYDLSNLHEIASGGAPLSKEVGEAVAKRFHLPGIRQGYGLTETTSAILITPEGV | 161.29 fold | 1.68 fold | 87.6 fold
